Here are results for 4 molecules from US20210403555A1 (JAPANESE FOUNDATION FOR CANCER RESEARCH, published 2021).

Substitutions are numbered along the chain they refer to.

For assay [1], the target named is T1, Recombinant human podoplanin Fc chimera protein (R&D, 3670-PL) (human, UniProt Q86YL7 23-128).
T1 construct: Bought reagent; not shown: Fc part of the bought chimera (detected with anti-human IgG Fc)
T1 sequence (looked up): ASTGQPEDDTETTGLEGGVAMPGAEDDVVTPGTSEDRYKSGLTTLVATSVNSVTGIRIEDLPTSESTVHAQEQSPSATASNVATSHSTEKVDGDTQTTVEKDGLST
The assay is described as follows: competition ELISA: inhibition of podoplanin-Fc binding to CLEC-2 on solid phase; positive control. An excerpt: (§1) The culture supernatants collected in Production Examples 1 and 2 were used to measure the inhibitory activity against binding of podoplanin to CLEC-2, following the ELISA protocol described in Patent Document 1.
The mouse antibody PG4D2 (PG4D2) was used as a positive control. The mouse antibody PG4D2 is a monoclonal antibody that is obtained from the NITE P-02071 (PG4D2) hybridoma.
In general terms: An ELISA detects its analyte on a solid surface through an enzyme-linked reagent.

Assay [2] concerns the target T2, Peptide of the human podoplanin PLAG4 domain (WT-hPLAG4 (Genscript, 788349-1)) (human, UniProt Q86YL7 76-89, limits assumed).
T2 construct: domain: PLAG4 domain
T2 peptide (looked up): TGIRIEDLPTSEST
The assay can be described thus: ELISA, PLAG4 peptide on solid phase, culture supernatant; the reference itself, set as 100%. From the text: The culture supernatants collected in Production Examples 1 and 2 were used to measure the binding activity to the podoplanin PLAG4 domain, following the ELISA protocol described in Patent Document 1. A peptide of the human podoplanin PLAG4 domain (WT-hPLAG4 (Genscript, 788349-1)) as an antigen peptide was immobilized on a solid phase, and a preadsorbed goat biotin-conjugated anti-human IgG Fc antibody (Abcam, ab98618) and β-Gal-conjugated streptavidin (Roche Diagnostics, 11112481001) were used for a detection purpose.
The avidity (antibody titer) of each antibody was expressed relative to that of the mouse-human chimeric antibody chPG4D2, which is set as 100%.

Assay [3] addresses T1, Recombinant human podoplanin Fc chimera …. The assay can be described thus: competition ELISA: inhibition of podoplanin-Fc binding to CLEC-2 on solid phase.
Source text: as §1

B1: Mouse antibody PG4D2 (antibody, V domains shown)
VH: DVQLVESGGGLVQPGGSRKLSCAASGFTFSGFGMLWVRQAPEKGLEWVAYISSVSSRIYYADTVKGRFTISRDNPKNTLFLQMTSLRSEDTAMYYCARESYGPAWFAYWGQGTLVTVSA
VL: DVLMTQTPLSLPVSLGDQASISCRSSQHIVHIDGNTYLEWYLQQPGQSPKLLIYKVSNRFSGVPDRFSGSGSGTDFTLRISRVEAEDLGVYYCFQGSHVPYTFGGGTKLEMK
What is called IC50 is the concentration needed to halve the response being measured. Consider B1, for which the IC50 in assay [1] was 0.371 µg/mL.

B2: Mouse-human chimeric antibody chPG4D2 (antibody, human IgG4 S228P, kappa, V domains shown)
VH: B1 VH
VL: DVLMTQTPLSLPVSLGDQASISCRSSQHIVHIDGNTYLEWYLQQPGQSPKLLIYKVSNRFSGVPDRFSGSGSGTDFTLRISRVEAEDLGVYYCFQGSHVPYTFGGGTKLEMKR
Take B2: the “Avidity (antibody titer) (%) relative to chPG4D2” value in assay [2] is 100%. For the same molecule, in assay [3], the IC50 was found to be 0.406 µg/mL.

B3: Humanized antibody K4 (antibody, human IgG4 S228P, kappa, V domains shown)
VH: EVQLVESGGGLVQPGGSLRLSCAASGFTFSGFGMLWVRQAPGKGLEWVAYISSVSSRIYYADTVKGRFTISRDNAKNSLYLQMNSLRAEDTAVYYCARESYGPAWFAYWGQGTLVTVSS
VL: DIVMTQSPLSLPVTPGEPASISCRSSQHIVHIDGNTYLEWYLQKPGQSPQLLIYKVSNRFSGVPDRFSGSGSGTDFTLKISRVEAEDVGVYYCFQGSHVPYTFGGGTKVEIKR
On to B3, for which the IC50 in assay [3] stood at 0.36 µg/mL.

B4: Humanized antibody K5 (antibody, human IgG4 S228P, kappa, V domains shown)
VH: B3 VH with A49S, A75S, S78T
VL: B3 VL
On to B4, for which the IC50 in assay [3] turned out to be 0.364 µg/mL.
